Measurements from publication PMC11101322, “VvWRKY5 positively regulates wounding-induced anthocyanin accumulation in grape by interplaying with VvMYBA1 and promoting jasmonic acid biosynthesis”.

B1: VvLOX mutant probe (dsDNA)
DNA 1: ACCAGCCAATGGAAAATAGCGAAAATACCTAGTCTATTCC
DNA 2: GGAATAGACTAGGTATTTTCGCTATTTTCCATTGGCTGGT
B2: VvUFGT probe (dsDNA)
DNA 1: GGATGACAACCCCCATGCAGTTGCCACTCTCACAACCCCC
DNA 2: GGGGGTTGTGAGAGTGGCAACTGCATGGGGGTTGTCATCC

Legend:
VvWRKY5-HIS = biological target: T1, VvWRKY5-HIS (Vitis vinifera, UniProt F6HUN4 7-329); assay: EMSA; LightShift Chemiluminescent EMSA system; buffer, salt, pH and temperature not stated; details: protein: recombinant, tags: His (pET-32a fusion), blunt
T1 sequence: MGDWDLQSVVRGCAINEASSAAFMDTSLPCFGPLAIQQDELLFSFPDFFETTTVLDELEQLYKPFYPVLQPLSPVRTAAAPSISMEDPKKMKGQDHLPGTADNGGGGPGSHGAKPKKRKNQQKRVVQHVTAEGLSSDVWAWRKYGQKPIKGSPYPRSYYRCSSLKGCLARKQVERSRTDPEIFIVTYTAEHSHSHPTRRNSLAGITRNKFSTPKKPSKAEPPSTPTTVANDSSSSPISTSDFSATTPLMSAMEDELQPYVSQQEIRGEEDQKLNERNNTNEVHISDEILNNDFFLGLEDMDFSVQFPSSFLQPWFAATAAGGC

VvMYBA1-HIS = biological target: T2, VvMYBA1-HIS (Vitis vinifera, UniProt Q6L9M9 1-250); assay: as above; details: protein: recombinant; tags: His (pET-32a fusion); label: biotin; blunt
T2 sequence: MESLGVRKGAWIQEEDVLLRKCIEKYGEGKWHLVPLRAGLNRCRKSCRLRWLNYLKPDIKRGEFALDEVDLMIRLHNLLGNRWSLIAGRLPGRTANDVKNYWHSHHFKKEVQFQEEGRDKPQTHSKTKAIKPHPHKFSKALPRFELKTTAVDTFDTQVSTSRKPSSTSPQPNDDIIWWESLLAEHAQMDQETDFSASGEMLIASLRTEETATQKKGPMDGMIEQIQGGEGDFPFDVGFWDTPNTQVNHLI

Binder | binding result (VvWRKY5-HIS) | binding result (VvMYBA1-HIS) | binding result (VvWRKY5-HIS; label: biotin)
B1 | no binding |  | 
B2 |  | binds | no binding
